Residue numbers refer to the chain shown, from its start. Names and notes keep the numbering of the source.
T1: mouse FcγRII extracellular domain with C-terminal His tag (mouse, UniProt P08101 30-210)
T1 construct: Made on the basis of NCBI NP-034317.1; also called mFcγRII; mFcgRII
T1 sequence: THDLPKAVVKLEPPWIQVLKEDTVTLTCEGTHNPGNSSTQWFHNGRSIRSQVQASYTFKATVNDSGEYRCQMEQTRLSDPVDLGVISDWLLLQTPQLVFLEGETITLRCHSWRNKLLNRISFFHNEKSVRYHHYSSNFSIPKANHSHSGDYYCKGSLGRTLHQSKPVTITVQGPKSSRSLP

T2: mouse FcγRIII extracellular domain with C-terminal His tag (mouse, UniProt P08508 31-215)
T2 construct: Made on the basis of NCBI NP-034318.2; also called mFcγRIII; mFcgRIII
T2 chain: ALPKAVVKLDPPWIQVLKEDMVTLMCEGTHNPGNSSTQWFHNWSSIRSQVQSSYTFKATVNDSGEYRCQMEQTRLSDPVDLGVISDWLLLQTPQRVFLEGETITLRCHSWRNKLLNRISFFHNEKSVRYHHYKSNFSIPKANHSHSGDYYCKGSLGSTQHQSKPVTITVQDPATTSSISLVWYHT

T3: mouse FcγRII extracellular domain, C-terminal His tag (mouse, UniProt P08101 30-210)
T3 construct: Whole entry named; also called mFcγRII; mFcgRII
T3 sequence: T1 sequence

T4: mouse FcγRIII extracellular domain, C-terminal His tag (mouse, UniProt P08508 31-215)
T4 construct: Whole entry named; also called mFcγRIII; mFcgRIII
T4 chain: T2 chain

B1: H237-MB379/MRAL-k0 (antibody, mouse IgG1, kappa)
heavy: QVQLQESGPGLVKPSETLSLTCAVSGHSISHDHAWSWVRQPPGEGLEWIGFISYSGITNYNPSLQGRVTISRDNSKNTLYLQMNSLRAEDTAVYYCARSLARTTAMDYWGEGTLVTVSSAKTTPPSVYPLAPGSAAQTNSMVTLGCLVKGYFPEPVTVTWNSGSLSSGVHTFPAVLQSDLYTLSSSVTVPSSTWPSETVTCNVAHPASSTKVDKKIVPRDCGCKPCICEVYEVEDVFIFPPKPKDVLTITLTPKVTCVVVDISKDDPEVQFSWFVDDVEVHTAQTQPREEQFNSTFRSVSELPIMHQDWLNGKEFKCRVNSAAFPAPIEKTISKTKGRPKAPQVYTIPPPKEQMAKDKVSLTCMITDFFPEDITVEWQWNGQPAENYKNTQPIMDTDGSYFVYSKLNVQKSNWEAGNTFTCSVLHEGLHNHHTEKSLSHSPGK
light: not shown
notes: mIgG1 with T230E/P232Y/S238E/S239D (EU); template T5; copies: 2 + 2
B2: H237-MB387/MRAL-k0 (antibody, mouse IgG1, kappa)
heavy: B1 heavy with V230N
light: not shown
notes: mIgG1 with T230E/V231N/P232Y/S238E/S239D (EU); template T3; copies: 2 + 2
B3: H237-MB382/MRAL-k0 (antibody, mouse IgG1, kappa)
heavy: B1 heavy with V230D
light: not shown
notes: mIgG1 with T230E/V231D/P232Y/S238E/S239D (EU); template T2; copies: 2 + 2
B4: H237-MB389/MRAL-k0 (antibody, mouse IgG1, kappa)
heavy: B1 heavy with V230P, Y231A
light: not shown
notes: mIgG1 with T230E/V231P/P232A/S238E/S239D (EU); template T6; copies: 2 + 2
B5: H237-MB390/MRAL-k0 (antibody, mouse IgG1, kappa)
heavy: B1 heavy with V230P, Y231N
light: not shown
notes: mIgG1 with T230E/V231P/P232N/S238E/S239D (EU); template T8; copies: 2 + 2
B6: H237-MB425/MRAL-k0 (antibody, mouse IgG1, kappa)
heavy: B1 heavy with E229I, V230P, Y231A
light: not shown
notes: mIgG1 with T230I/V231P/P232A/S238E/S239D (EU); template T7; copies: 2 + 2
B7: H237-MB373/MRAL-k0 (antibody, mouse IgG1, kappa)
heavy: B1 heavy with V230A
light: not shown
notes: mIgG1 with T230E/V231A/P232Y/S238E/S239D (EU); template T1; copies: 2 + 2
B8: H237-MB397/MRAL-k0 (antibody, mouse IgG1, kappa)
heavy: B1 heavy with V230T
light: not shown
notes: mIgG1 with T230E/V231T/P232Y/S238E/S239D (EU); template T4; copies: 2 + 2
B9: H237-MB486/MRAL-k0 (antibody, mouse IgG1, kappa)
heavy: B1 heavy with V230P, Y231A, D235S
light: not shown
notes: copies: 2 + 2
B10: H237-MB475/MRAL-k0 (antibody, mouse IgG1, kappa)
heavy: B1 heavy with V230P, Y231N, D235E
light: not shown
notes: copies: 2 + 2
B11: H237-MB515/MRAL-k0 (antibody, mouse IgG1, kappa)
heavy: B1 heavy with V230P, Y231N, D235M
light: not shown
notes: mIgG1 with T230E/V231P/P232N/S238E/S239M (EU); copies: 2 + 2
B12: H237-MB473/MRAL-k0 (antibody, mouse IgG1, kappa)
heavy: B1 heavy with V230P, Y231A, D235E
light: not shown
notes: copies: 2 + 2
B13: H237-MB524/MRAL-k0 (antibody)
heavy: B1 heavy with V230P, Y231N, D235W
light: not shown
notes: copies: 2 + 2
B14: H237-MB474/MRAL-k0 (antibody, mouse IgG1, kappa)
heavy: B1 heavy with E229I, V230P, Y231A, D235E
light: not shown
notes: copies: 2 + 2
B15: H237-MB513/MRAL-k0 (antibody, mouse IgG1, kappa)
heavy: B1 heavy with V230P, Y231A, D235M
light: not shown
notes: copies: 2 + 2
B16: H237-MB476/MRAL-k0 (antibody, mouse IgG1, kappa)
heavy: B1 heavy with E229Q, V230P, Y231N, D235E
light: not shown
notes: mIgG1 with T230Q/V231P/P232N/S238E/S239E (EU); copies: 2 + 2
B17: H237-MB542/MRAL-k0 (antibody, mouse IgG1, kappa)
heavy: B1 heavy with V230P, Y231N, D235M, N320D, A322D
light: not shown
notes: copies: 2 + 2
B18: H237-MB549/MRAL-k0 (antibody, mouse IgG1, kappa)
heavy: B1 heavy with V230P, Y231N, D235M, S294L, N320D, A322D, K330R
light: not shown
notes: copies: 2 + 2
B19: H237-MB544/MRAL-k0 (antibody, mouse IgG1, kappa)
heavy: B1 heavy with V230P, Y231N, D235M, A322D, K330R
light: not shown
notes: copies: 2 + 2
B20: H237-MB548/MRAL-k0 (antibody, mouse IgG1, kappa)
heavy: B1 heavy with V230P, Y231N, D235M, N320D, A322D, K330R
light: not shown
notes: copies: 2 + 2

molecular target: T1, mouse FcγRII extracellular domain with …; assay: SPR Biacore T200

| Kd [nM] | relative mFcγRII-binding activity (mIgG1 = 1) | Binder |
| --- | --- | --- |
| 0.768 | 273 | B1 |
| 0.659 | 319 | B2 |
| 0.655 | 321 | B3 |
| 0.858 | 245 | B4 |
| 0.403 | 522 | B5 |
| – | 194 | B6 |
| 0.538 | 390 | B7 |
| 0.379 | 555 | B8 |

Molecular target: T2, mouse FcγRIII extracellular domain with …
Assay: SPR Biacore T200

| Kd [nM] | relative mFcγRIII-binding activity (mIgG1 = 1) | Binder |
| --- | --- | --- |
| 23.2 | 12.2 | B1 |
| 16.9 | 16.7 | B2 |
| 23 | 12.3 | B3 |
| 40.6 | 7 | B4 |
| 23.7 | 11.9 | B5 |
| – | 5.5 | B6 |
| 18.2 | 15.5 | B7 |
| 14.6 | 19.3 | B8 |

molecular target: T1, mouse FcγRII extracellular domain with …; assay: SPR Biacore T200; remark: another data set of the same source

| relative mFcγRII-binding activity (mIgG1 = 1) | Binder |
| --- | --- |
| 273 | B1 |
| 28.1 | B9 |
| 214 | B10 |
| 319 | B2 |
| 321 | B3 |
| 245 | B4 |
| 165 | B11 |
| 57.6 | B12 |
| 10 | B13 |
| 522 | B5 |
| 194 | B6 |
| 42.9 | B14 |
| 46.3 | B15 |
| 390 | B7 |
| 246 | B16 |
| 555 | B8 |

Molecular target: T2, mouse FcγRIII extracellular domain with …
Assay: SPR Biacore T200
Remark: another data set of the same source

| relative mFcγRIII-binding activity (mIgG1 = 1) | Binder |
| --- | --- |
| 12.2 | B1 |
| 1.1 | B9 |
| 3.5 | B10 |
| 16.7 | B2 |
| 12.3 | B3 |
| 7 | B4 |
| 1.7 | B11 |
| 1.4 | B12 |
| 0.3 | B13 |
| 11.9 | B5 |
| 5.5 | B6 |
| 1.1 | B14 |
| 0.6 | B15 |
| 15.5 | B7 |
| 3.4 | B16 |
| 19.3 | B8 |

molecular target: T1, mouse FcγRII extracellular domain with …; assay: SPR Biacore T200; remark: another data set of the same source
Procedure: (§1) Each altered antibody was analyzed for its interaction with each Fcγ receptor prepared above using Biacore T100 (GE Healthcare Japan Corp.), Biacore T200 (GE Healthcare Japan Corp.), Biacore A100, or Biacore 4000. The running buffer used was HBS-EP+ (GE Healthcare Japan Corp.). The assay temperature was set to 25° C. The sensor chips used were chips prepared by immobilizing Protein L (ACTIGEN or BioVision) onto Series S Sensor Chip CM5 (GE Healthcare Japan Corp.) or Series S Sensor Chip CM4 (GE Healthcare Japan Corp.) by the amine coupling method.
(§2) In order to calculate the KD value of each altered antibody for FcγR, kinetic analysis was conducted according to the following method: first, the antibody of interest was captured onto any of these chips and allowed to interact with mFcγR diluted with a running buffer. For the obtained sensorgram, the assay results were globally fit into the 1:1 Langmuir binding model using Biacore Evaluation Software to calculate an association rate constant ka (L/mol/s) and a dissociation rate constant kd (1/s). From these values, the dissociation constant KD (mol/L) was calculated.

| Kd [nM] | Binder |
| --- | --- |
| 0.768 | B1 |
| 7.47 | B9 |
| 0.979 | B10 |
| 0.659 | B2 |
| 0.655 | B3 |
| 0.858 | B4 |
| 1.27 | B11 |
| 3.65 | B12 |
| 21 | B13 |
| 0.403 | B5 |
| 1.08 | B6 |
| 4.89 | B14 |
| 4.53 | B15 |
| 0.538 | B7 |
| 0.854 | B16 |
| 0.379 | B8 |

Molecular target: T2, mouse FcγRIII extracellular domain with …
Assay: SPR Biacore T200
Remark: another data set of the same source
Procedure: as §1, §2

| Kd [nM] | Binder |
| --- | --- |
| 23.2 | B1 |
| 258 | B9 |
| 81.4 | B10 |
| 16.9 | B2 |
| 23 | B3 |
| 40.6 | B4 |
| 171 | B11 |
| 196 | B12 |
| 837 | B13 |
| 23.7 | B5 |
| 51 | B6 |
| 247 | B14 |
| 509 | B15 |
| 18.2 | B7 |
| 84 | B16 |
| 14.6 | B8 |

molecular target: T3, mouse FcγRII extracellular domain, …; assay: SPR (Biacore T200), 1:1 fit
Procedure: as §1, §2

| Kd [nM] | Binder |
| --- | --- |
| 0.547 | B17 |
| 1 | B18 |
| 0.76 | B19 |
| 0.589 | B20 |

Molecular target: T4, mouse FcγRIII extracellular domain, …
Assay: SPR (Biacore T200), 1:1 fit
Procedure: as §1, §2

| Kd [nM] | Binder |
| --- | --- |
| 83.3 | B17 |
| 52.1 | B18 |
| 87.2 | B19 |
| 71.7 | B20 |

molecular target: T1, mouse FcγRII extracellular domain with …; assay: SPR Biacore T200; KD mFcγRIII / KD mFcγRII

| I/A (mFcγRII selectivity) | relative I/A (mFcγRII selectivity) (mIgG1 = 1) | Binder |
| --- | --- | --- |
| 30.2 | 22.5 | B1 |
| 25.6 | 19.1 | B2 |
| 35.1 | 26.2 | B3 |
| 47.3 | 35.3 | B4 |
| 59 | 44 | B5 |
| – | 35.2 | B6 |
| 33.8 | 25.2 | B7 |
| 38.7 | 28.9 | B8 |

Molecular target: T4, mouse FcγRIII extracellular domain, …
Assay: SPR (Biacore T200); KD of H237-mIgG1/MRAL-k0 / KD of variant
Procedure: as §1, §2

| relative mFcγRIII-binding activity (mIgG1 = 1) [fold] | Binder |
| --- | --- |
| 3.4 | B17 |
| 5.4 | B18 |
| 3.2 | B19 |
| 3.9 | B20 |
